Experimental data reported in patent US20060058230A1 (published 2006).
Non-standard residues stand in square brackets, D forms with d. No end group written: not given here. 2Nal = N[C@@H](Cc1ccc2ccccc2c1)C(=O)O; 2Thi = N[C@@H](Cc1cccs1)C(=O)O; β3hL = CC(C)C[C@H](N)CC(=O)O; Nle = CCCC[C@H](N)C(=O)O; βAla = NCCC(=O)O

T1: recombinant hPTH1-receptor (human, UniProt Q03431 27-593)
T1 sequence (looked up): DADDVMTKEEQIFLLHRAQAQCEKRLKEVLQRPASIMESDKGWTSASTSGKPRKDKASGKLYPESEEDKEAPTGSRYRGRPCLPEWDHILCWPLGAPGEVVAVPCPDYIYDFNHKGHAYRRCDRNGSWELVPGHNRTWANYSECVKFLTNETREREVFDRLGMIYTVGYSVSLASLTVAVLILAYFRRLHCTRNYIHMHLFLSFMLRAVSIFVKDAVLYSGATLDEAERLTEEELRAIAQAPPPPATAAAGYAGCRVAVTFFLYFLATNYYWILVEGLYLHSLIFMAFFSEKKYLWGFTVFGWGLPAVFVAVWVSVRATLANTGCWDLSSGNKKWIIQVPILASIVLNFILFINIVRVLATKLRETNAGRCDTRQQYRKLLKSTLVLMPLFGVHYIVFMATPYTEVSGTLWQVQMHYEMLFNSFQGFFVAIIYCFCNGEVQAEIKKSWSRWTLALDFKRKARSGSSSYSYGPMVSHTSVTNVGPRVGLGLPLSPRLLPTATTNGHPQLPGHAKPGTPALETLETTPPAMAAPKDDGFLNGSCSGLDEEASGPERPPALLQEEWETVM

T2: PTH receptor on SaOS-2/B10 cells (UniProt Q03431 27-593)
T2 sequence (looked up): T1 sequence (looked up)

B1: [Glu^22,25,29, Leu^23,28,30,31, Lys^26]hPTHrP(1-34)NH2 (peptide)
peptide: AVSEHQLLHDKGKSIQDLRRRELLEKLLELLHTA-NH2
notes: Synthetic analog of human PTHrP(1-34), carboxamide at the C-terminus
B2: [Nle^8,18, β-Ala^19, Nal^23, Tyr^34]bPTH(1-34)NH2 (peptide)
peptide: AVSEIQF[Nle]HNLGKHLSS[Nle][βAla]RVE[2Nal]LRKKLQDVHNY-NH2
modifications: N-terminus assumed
SMILES: CCCC[C@H](NC(=O)[C@H](CO)NC(=O)[C@H](CO)NC(=O)[C@H](CC(C)C)NC(=O)[C@H](Cc1c[nH]cn1)NC(=O)[C@H](CCCCN)NC(=O)CNC(=O)[C@H](CC(C)C)NC(=O)[C@H](CC(N)=O)NC(=O)[C@H](Cc1c[nH]cn1)NC(=O)[C@H](CCCC)NC(=O)[C@H](Cc1ccccc1)NC(=O)[C@H](CCC(N)=O)NC(=O)[C@@H](NC(=O)[C@H](CCC(=O)O)NC(=O)[C@H](CO)NC(=O)[C@@H](NC(=O)[C@H](C)N)C(C)C)[C@@H](C)CC)C(=O)NCCC(=O)N[C@@H](CCCNC(=N)N)C(=O)N[C@H](C(=O)N[C@@H](CCC(=O)O)C(=O)N[C@@H](Cc1ccc2ccccc2c1)C(=O)N[C@@H](CC(C)C)C(=O)N[C@@H](CCCNC(=N)N)C(=O)N[C@@H](CCCCN)C(=O)N[C@@H](CCCCN)C(=O)N[C@@H](CC(C)C)C(=O)N[C@@H](CCC(N)=O)C(=O)N[C@@H](CC(=O)O)C(=O)N[C@H](C(=O)N[C@@H](Cc1c[nH]cn1)C(=O)N[C@@H](CC(N)=O)C(=O)N[C@@H](Cc1ccc(O)cc1)C(N)=O)C(C)C)C(C)C
notes: Synthetic analog of bovine PTH(1-34), carboxamide at the C-terminus
B3: [Glu^22,25,29, Leu^23,28,31, Lys^26,30, Thi^32]hPTHrP(1-34)NH2 (peptide)
peptide: AVSEHQLLHDKGKSIQDLRRRELLEKLLEKL[2Thi]TA-NH2
modifications: N-terminus assumed
SMILES: CC[C@H](C)[C@H](NC(=O)[C@H](CO)NC(=O)[C@H](CCCCN)NC(=O)CNC(=O)[C@H](CCCCN)NC(=O)[C@H](CC(=O)O)NC(=O)[C@H](Cc1c[nH]cn1)NC(=O)[C@H](CC(C)C)NC(=O)[C@H](CC(C)C)NC(=O)[C@H](CCC(N)=O)NC(=O)[C@H](Cc1c[nH]cn1)NC(=O)[C@H](CCC(=O)O)NC(=O)[C@H](CO)NC(=O)[C@@H](NC(=O)[C@H](C)N)C(C)C)C(=O)N[C@@H](CCC(N)=O)C(=O)N[C@@H](CC(=O)O)C(=O)N[C@@H](CC(C)C)C(=O)N[C@@H](CCCNC(=N)N)C(=O)N[C@@H](CCCNC(=N)N)C(=O)N[C@@H](CCCNC(=N)N)C(=O)N[C@@H](CCC(=O)O)C(=O)N[C@@H](CC(C)C)C(=O)N[C@@H](CC(C)C)C(=O)N[C@@H](CCC(=O)O)C(=O)N[C@@H](CCCCN)C(=O)N[C@@H](CC(C)C)C(=O)N[C@@H](CC(C)C)C(=O)N[C@@H](CCC(=O)O)C(=O)N[C@@H](CCCCN)C(=O)N[C@@H](CC(C)C)C(=O)N[C@@H](Cc1cccs1)C(=O)N[C@H](C(=O)N[C@@H](C)C(N)=O)[C@@H](C)O
notes: as for B1
B4: [Glu^22,25,29, Lys^26,30]hPTHrP(1-34)NH2 (peptide)
peptide: AVSEHQLLHDKGKSIQDLRRREFLEKLIEKIHTA-NH2
notes: as for B1
B5: [Leu^23,28,31]hPTHrP(1-34)NH2 (peptide)
peptide: AVSEHQLLHDKGKSIQDLRRRFLLHHLLAELHTA-NH2
notes: as for B1
B6: [Nle^8, β-hLeu^18, β-Ala^19, Nal^23, Tyr^34]bPTH(1-34)NH2 (peptide)
peptide: AVSEIQF[Nle]HNLGKHLSS[β3hL][βAla]RVE[2Nal]LRKKLQDVHNY-NH2
modifications: N-terminus assumed
SMILES: CCCC[C@H](NC(=O)[C@H](Cc1ccccc1)NC(=O)[C@H](CCC(N)=O)NC(=O)[C@@H](NC(=O)[C@H](CCC(=O)O)NC(=O)[C@H](CO)NC(=O)[C@@H](NC(=O)[C@H](C)N)C(C)C)[C@@H](C)CC)C(=O)N[C@@H](Cc1c[nH]cn1)C(=O)N[C@@H](CC(N)=O)C(=O)N[C@@H](CC(C)C)C(=O)NCC(=O)N[C@@H](CCCCN)C(=O)N[C@@H](Cc1c[nH]cn1)C(=O)N[C@@H](CC(C)C)C(=O)N[C@@H](CO)C(=O)N[C@@H](CO)C(=O)N[C@H](CC(=O)NCCC(=O)N[C@@H](CCCNC(=N)N)C(=O)N[C@H](C(=O)N[C@@H](CCC(=O)O)C(=O)N[C@@H](Cc1ccc2ccccc2c1)C(=O)N[C@@H](CC(C)C)C(=O)N[C@@H](CCCNC(=N)N)C(=O)N[C@@H](CCCCN)C(=O)N[C@@H](CCCCN)C(=O)N[C@@H](CC(C)C)C(=O)N[C@@H](CCC(N)=O)C(=O)N[C@@H](CC(=O)O)C(=O)N[C@H](C(=O)N[C@@H](Cc1c[nH]cn1)C(=O)N[C@@H](CC(N)=O)C(=O)N[C@@H](Cc1ccc(O)cc1)C(N)=O)C(C)C)C(C)C)CC(C)C
notes: as for B2
B7: [Nle^8, β-Ala^17,19, β-hLeu^18, Nal^23, Tyr^34]bPTH(1-34)NH2 (peptide)
peptide: AVSEIQF[Nle]HNLGKHLS[βAla][β3hL][βAla]RVE[2Nal]LRKKLQDVHNY-NH2
modifications: N-terminus assumed
SMILES: CCCC[C@H](NC(=O)[C@H](Cc1ccccc1)NC(=O)[C@H](CCC(N)=O)NC(=O)[C@@H](NC(=O)[C@H](CCC(=O)O)NC(=O)[C@H](CO)NC(=O)[C@@H](NC(=O)[C@H](C)N)C(C)C)[C@@H](C)CC)C(=O)N[C@@H](Cc1c[nH]cn1)C(=O)N[C@@H](CC(N)=O)C(=O)N[C@@H](CC(C)C)C(=O)NCC(=O)N[C@@H](CCCCN)C(=O)N[C@@H](Cc1c[nH]cn1)C(=O)N[C@@H](CC(C)C)C(=O)N[C@@H](CO)C(=O)NCCC(=O)N[C@H](CC(=O)NCCC(=O)N[C@@H](CCCNC(=N)N)C(=O)N[C@H](C(=O)N[C@@H](CCC(=O)O)C(=O)N[C@@H](Cc1ccc2ccccc2c1)C(=O)N[C@@H](CC(C)C)C(=O)N[C@@H](CCCNC(=N)N)C(=O)N[C@@H](CCCCN)C(=O)N[C@@H](CCCCN)C(=O)N[C@@H](CC(C)C)C(=O)N[C@@H](CCC(N)=O)C(=O)N[C@@H](CC(=O)O)C(=O)N[C@H](C(=O)N[C@@H](Cc1c[nH]cn1)C(=O)N[C@@H](CC(N)=O)C(=O)N[C@@H](Cc1ccc(O)cc1)C(N)=O)C(C)C)C(C)C)CC(C)C
B8: [Glu^25,29, Leu^23,27,31, Lys^30]hPTH(1-34)NH2 (peptide)
peptide: SVSEIQLMHNLGKHLNSMERVELLEKLLEKLHNF-NH2
notes: Synthetic analog of human PTH(1-34), carboxamide at the C-terminus
B9: [Glu^25,29, Lys^30]hPTH(1-34)NH2 (peptide)
peptide: SVSEIQLMHNLGKHLNSMERVEWLEKKLEKVHNF-NH2
notes: as for B8
B10: [Leu^23,27,31]hPTH(1-34)NH2 (peptide)
peptide: SVSEIQLMHNLGKHLNSMERVELLRKLLQDLHNF-NH2
notes: as for B8

Tests used:
[1] = biological target: T1, recombinant hPTH1-receptor; assay: cell-based or functional assay
[2] = biological target: T2, PTH receptor on SaOS-2/B10 cells; assay: cell-based or functional assay
[3] = biological target: T2, PTH receptor on SaOS-2/B10 cells; assay: competition with mono-125I-[Nle8,18,Tyr34]bPTH(1-34)NH2 on SaOS-2/B10 cells
Description: SaOS-2/B10 cells were maintained for four days after they had reached confluence. The medium was replaced with 5% FBS […] medium and incubated for 2 hrs at room temperature with 10×10⁴ cpm mono-¹²⁵I-[Nle^{8,18},Tyr³⁴(3-¹²⁵I)]bPTH(1-34)NH₂ in the presence or absence of a competing tested polypeptide of the invention. The cells were washed four times with ice-cold PBS and lysed with 0.1M NaOH, and the radioactivity associated with the cells was counted in a scintillation counter. Synthesis of the radiolabelled [Nle^{8,18},Tyr³⁴(3-¹²⁵I)]bPTH(1-34)NH₂ was carried out as described in Goldman M. E., et al., Endocrinology, (1988), 123, 1468-1475.
The binding assay was conducted on the polypeptides of the invention having SEQ ID NO:5, 6, 7, 9, 10, 11, and 12.

[4] = biological target: T1, recombinant hPTH1-receptor; assay: competition with 125I-[Nle8,18,Nal23,Tyr34]bPTH(1-34)NH2 on HEK293/C21 cells with hPTH1-receptor
Description: Human embryonic kidney (HEK293) cells, stably transfected with recombinant hPTH1-receptor (HEK293/C21 cell line, ˜400,000 receptors/cell) (Pines, M., Adams, A. E., Stueckle, S., Bessalle, R., Rashti-Behar, V., Chorev, M., Rosenblatt, M., and Suva, L. J. Endocrinology 1994, 135, 1713-1716), were maintained in D-MEM medium supplemented with 10% fetal bovine serum and […] glutamine at 37° C. in a humidified atmosphere of 95% air/5% CO₂. The medium was changed every 3-4 days, and the cells were subcultured every week. Ligand stimulated adenylyl cyclase activity and radioreceptor competition binding assays were performed on confluent cultures, 1-3 days after a change of medium.
[Nle^{8,18},Nal²³,Tyr³⁴]bPTH(1-34)-NH₂ was radioiodinated and the crude material was purified as previously described (Roubini, E., Duong, L. T., Gibbons, S. W., Leu, C. T., Caulfield, M. P., Chorev, M., and Rosenblatt, M. Biochemistry 1992, 31, 4026-4033). Briefly, 67 μg of peptide in 50 μL phosphate buffer, pH 7.4, in a borosilicate tube, coated with 10 μg Iodogen® (Pierce Chemical), were treated at room temperature with 2 mCi [¹²⁵I]Na for 12 min, followed by dilution with 200 μL of 0.1% TFA in water.
Cells were plated in 24-well tissue culture dishes (Corning Glass Works, Corning, N.Y.) and grown to subconfluency. […] After incubation, cells were washed twice with PBS and lysed with 0.1 M NaOH. Radioactivity in the lysate was measured in a γ-counter (Analytic GammaTrac™ 1193).

| Molecule | EC50 (half maximal stimulation of adenylate cyclase) [1] [nM] | EC50 (half maximal stimulation of adenylate cyclase) [2] [nM] | IC50 [3] [nM] | IC50 [4] [nM] |
| --- | --- | --- | --- | --- |
| [Nle^8, β-Ala^18,19, Nal^23, Tyr^34]bPTH(1-34)NH2 (peptide) | 13.8 | – | – | – |
| B1 | – | 5 | 70 | – |
| B2 | 1.51 | – | – | 59 |
| B3 | – | 10 | 90 | – |
| B4 | – | 0.42 | 5.5 | – |
| B5 | – | 0.74 | 18.3 | – |
| B6 | 2.73 | – | – | 117 |
| B7 | 9.97 | – | – | – |
| B8 | – | 24 | 216 | – |
| B9 | – | 25.5 | 30 | – |
| B10 | – | 1.12 | 41 | – |
